In patent US20240101675A1 (BIOLOJIC DESIGN, published 2024):

Legend:
[1] = target: T1, recombinant human OX40 tagged with histidine tag (hOX40-His) (human, UniProt P43489 29-216); assay: yeast surface display scFv, flow cytometry, 90 nM hOX40-His
T1 construct: bought (Reprokine); also called hOX-His; not shown: histidine tag
T1 sequence (looked up): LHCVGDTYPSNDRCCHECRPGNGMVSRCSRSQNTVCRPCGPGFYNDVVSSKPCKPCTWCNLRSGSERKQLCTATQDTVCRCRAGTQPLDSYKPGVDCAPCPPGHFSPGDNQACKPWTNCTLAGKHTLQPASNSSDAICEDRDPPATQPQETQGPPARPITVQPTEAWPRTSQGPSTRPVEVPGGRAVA

[2] = target: T2, recombinant human PD-1 tagged with histidine tag (hPD-1-His) (human, UniProt Q15116 25-167, limits assumed); assay: yeast surface display scFv, flow cytometry, 30 nM hPD-1-His
T2 construct: bought (Reprokine); not shown: histidine tag

[3] = target: T3, cynomolgus monkey TSLP (cynomolgus monkey, UniProt A0A7N9CAT7 29-159); assay: ELISA, ligand coated, IgG titrated 1 to 1000 nM
T3 construct: also called cTSLP; cyno-TSLP

[4] = target: T4, human TSLP (human, UniProt Q969D9 29-159); assay: ELISA, ligand coated, IgG titrated 1 to 1000 nM
T4 construct: also called hTSLP; h-TSLP

[5] = target: T5, recombinant cynomolgus monkey IL-13 (cynomolgus monkey, UniProt Q0PW92 21-132); assay: ELISA, ligand coated, IgG titrated 1 to 1000 nM
T5 construct: also called rc-IL-13; cIL-13

[6] = target: T6, recombinant human IL-13 (human, UniProt P35225 35-146); assay: SPR (BIAcore T200), IgG captured, hIL-13 as analyte 20 to 0.6 nM
T6 construct: also called rh-IL-13; rhIL-13

[7] = target: T7, hTSLP-His (ACRO biosystems cat: TSP-H52Hb) (human, UniProt Q969D9 29-159, limits assumed); assay: competition ELISA: 3 nM hTSLP-His pre-mixed with IgG, plate coated with TSLP-R-Fc
T7 construct: bought; not shown: His tag

[8] = target: T6, recombinant human IL-13; assay: cell-based or functional assay
[9] = target: T7, hTSLP-His (ACRO biosystems cat: …); assay: cell-based or functional assay
[10] = target: T8, IL-4 (Homo sapiens (Human), UniProt P05112 25-153); assay: specificity ELISA: plate coated with 250 ng ligand, 100 nM IgG, anti-human Fc-HRP
T8 sequence: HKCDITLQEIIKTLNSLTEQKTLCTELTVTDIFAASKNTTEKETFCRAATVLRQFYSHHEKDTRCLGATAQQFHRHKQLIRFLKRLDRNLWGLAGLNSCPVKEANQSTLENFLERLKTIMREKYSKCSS

[11] = target: T9, IL-2 (specificity ELISA of Example 6) (Homo sapiens (Human), UniProt P60568 21-153); assay: as above
[12] = target: BSA (UniProt P02769 25-607); assay: as above
[13] = target: T9, IL-2 (specificity ELISA of Example 6); assay: specificity ELISA, ligand coated
[14] = target: T6, recombinant human IL-13; assay: cell-based or functional assay; remark: listed apart in the source
[15] = target: T7, hTSLP-His (ACRO biosystems cat: …); assay: blocking ELISA: competitor mixed with 3 nM hTSLP-His, then on a plate coated with TSLP-R-Fc; bound hTSLP-His by anti-His-HRP
[16] = target: T7, hTSLP-His (ACRO biosystems cat: …); assay: competition ELISA: hTSLP-His pre-mixed with soluble TSLP-R as competitor, plate coated with TSLP-R-Fc

T6 sequence (P35225 35-146 limits assumed): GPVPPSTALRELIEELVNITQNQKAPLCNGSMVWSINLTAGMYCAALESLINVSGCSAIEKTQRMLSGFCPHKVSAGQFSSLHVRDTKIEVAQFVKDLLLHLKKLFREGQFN
BSA, sequence (P02769 25-607 limits assumed): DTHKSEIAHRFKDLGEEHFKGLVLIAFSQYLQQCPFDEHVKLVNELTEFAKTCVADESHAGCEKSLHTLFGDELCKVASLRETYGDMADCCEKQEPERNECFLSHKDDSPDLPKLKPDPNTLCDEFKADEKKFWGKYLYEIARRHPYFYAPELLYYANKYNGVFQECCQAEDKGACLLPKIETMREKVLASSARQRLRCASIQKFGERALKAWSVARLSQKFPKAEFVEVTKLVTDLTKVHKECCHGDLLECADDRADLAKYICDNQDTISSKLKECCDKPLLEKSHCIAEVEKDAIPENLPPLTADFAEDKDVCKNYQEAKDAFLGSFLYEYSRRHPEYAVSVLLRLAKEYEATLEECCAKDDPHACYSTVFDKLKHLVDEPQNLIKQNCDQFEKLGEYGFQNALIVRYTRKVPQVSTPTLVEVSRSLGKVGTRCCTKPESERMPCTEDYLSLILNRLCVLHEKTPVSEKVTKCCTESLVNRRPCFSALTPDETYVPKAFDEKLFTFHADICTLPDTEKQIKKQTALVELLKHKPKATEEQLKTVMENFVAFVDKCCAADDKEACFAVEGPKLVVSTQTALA
T5 sequence (Q0PW92 entry or part of it): as the sequence (P35225 35-146 limits assumed) above, with G1S, R10K, M42V, S67N, H83R, L100V counted along it
T3 sequence (A0A7N9CAT7 entry or part of it): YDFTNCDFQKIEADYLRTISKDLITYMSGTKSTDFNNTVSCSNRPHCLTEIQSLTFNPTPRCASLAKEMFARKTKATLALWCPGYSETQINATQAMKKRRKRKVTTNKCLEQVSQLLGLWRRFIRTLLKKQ
T9 sequence (P60568 21-153 limits assumed): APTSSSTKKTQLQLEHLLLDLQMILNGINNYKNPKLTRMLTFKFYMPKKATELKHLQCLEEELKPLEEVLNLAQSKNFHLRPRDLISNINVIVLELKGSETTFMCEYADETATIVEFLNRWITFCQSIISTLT
T2 sequence (Q15116 25-167 limits assumed): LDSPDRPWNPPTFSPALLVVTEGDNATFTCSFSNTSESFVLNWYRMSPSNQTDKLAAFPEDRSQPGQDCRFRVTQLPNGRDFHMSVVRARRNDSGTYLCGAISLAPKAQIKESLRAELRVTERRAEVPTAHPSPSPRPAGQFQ

Binder | binding result [1] | binding result [2] | EC50 [3] | EC50 [4] | EC50 [5] | Kd [6] | koff [6] | kon [6] | IC50 [7] | IC50, inhibition of IL-13 signaling cascade in HEK-Blue IL-4/IL-13 cells [8] | IC50, inhibition of TSLP dependent pSTAT5 activation in MUTZ5 cells [9] | binding result [10] | binding result [11] | binding result [12] | binding result [13] | IC50 (read off the curve); HEK-Blue IL-4/IL-13 STAT6-SEAP reporter with 0.4 nM rh-IL-13, OD 620 [14] | IC50 (read off the curve) [15] | IC50 [16]
3212ACOXC81 (OX40 library) (scFv, V domains shown, not shown: linker) VH: QVQLVESGGGVVQPGRSLRLDCKASGIDFSNSGMHWVRQAPGKGLEWVAVIWYDGSTRYYADSVKGRFTISRDNSKNTLFLQMNSLRAEDTAVYYCATNDDYWGQGTLVTVSS VL: EIVLTQSPATLSLSPGERATLSCRASQSVIHYLAWYQQKPGQAPRLLIYDASNRATGIPARFSGSGSGTDFTLTISSLEPEDFAVYYCQQYDNWPLTFGQGTKVEIK | binds | binds |  |  |  |  |  |  |  |  |  |  |  |  |  |  |  | 
BDG33.023 (antibody, human IgG1, V domains shown, IgG (human IgG1 format, symmetrical IgG); also called BGD33.023; BGD33.0023) VH: QMQLVESGGGVVQPGRSLRLSCAASGFAFRTYGMHWVRQAPGKGLEWVAVIWYDGSNTHYADSVKGRFTITRDNSKNTLNLQMNSLRAEDTAVYYCARAPQWYLSAEAFDLWGQGTMVTVSS VL: SYVLTQPPSVSVAPGQTARITCGGNLIGSKLVHWYQQKPGQAPVLVVYDDSDRPSRIPERFSGSNSGNTATLTISRVEAGDEADYYCQVWDHSSDHVVFGGGTKLTVL |  |  | 8.2 nM | 2.5 nM | 7.1 nM | 3.65 nM | 0.0157 s⁻¹ | 4.31e+06 M⁻¹ s⁻¹ | 0.41 nM | 1.3 nM | 13 pM | no binding (tested: 100 nM IgG (not on the sheet)) | no binding (tested: 100 nM IgG (not on the sheet)) | no binding (tested: 100 nM IgG (not on the sheet)) |  |  |  | 
BDG33.025 (antibody, human IgG1, V domains shown, IgG (human IgG1 format, symmetrical IgG); also called BGD33.025; BDG33.0025) VH: QMQLVESGGGVVQPGRSLRLSCAASGFTFRTYGMHWVRQAPGKGLEWVADIWYDGSNKHYADSVKGRFTITRDNSKNTLNLQMNSLRAEDTAVYYCARAPQWYLVAEPFDLWGQGTMVTVSS VL: SYVLTQPPSVSVAPGQTARITCGGNLIGSKLVHWYQQKPGQAPVLVVYDDSDRPSLIPERFSGSNSGNTATLTISRVEAGDEADYYCQVWDSSSDGVVFGGGTKLTVL |  |  | 148 nM | 12.8 nM | 1.5 nM | 0.903 nM | 0.0036 s⁻¹ | 4.07e+06 M⁻¹ s⁻¹ |  | 25 nM |  |  |  | no binding (tested: 100 nM IgG (not on the sheet)) | no binding (tested: 100 nM IgG) | ~20 nM |  | 
TSLP-R-Fc tag (ACRO biosystems TSR-H525a) (Fc fusion, UniProt Q9HC73 23-231, looked up, bought; also called TSLP receptor; not shown: Fc tag) QGGAAEGVQIQIIYFNLETVQVTWNASKYSRTNLTFHYRFNGDEAYDQCTNYLLQEGHTSGCLLDAEQRDDILYFSIRNGTHPVFTASRWMVYYLKPSSPKHVRFSWHQDAVTVTCSDLSYGDLLYEVQYRSPFDTEWQSKQENTCNVTIEGLDAEKCYSFWVRVKAMEDVYGPDTYPSDWSEVTCWQRGEIRDACAETPTPPKPKLSK |  |  |  |  |  |  |  |  |  |  |  |  |  |  |  |  | ~3 nM | 3 nM
